Measurements taken from the supplement of paper PMC10567573.

B1: C22orf15 (parent)
chain: PRGRAHLLPNPYQQDFLGLPEELR
B2: FEM1B (parent)
chain: TLAALLLNRSESDIRYLLGYVSQQ

Variants of: B1
Test: protein stability index of a GFP-peptide fusion (GPS, HEK-293T) (PSI 1-6); higher = more stable
Settings: c terminus: a fixed tail appended
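Note: lentivirally expressed fusions sorted by FACS into six bins by GFP to DsRed ratio, PSI derived from sequencing read proportions per bin multiplied by bin number.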

Protein stability index of substitutions, site by site:
G18: V 3.73; Y 3.34; W 2.98
P20: F 2.43; D 4.07; R 3.23; L 2.76; E 4.08; V 2.46; M 2.78; H 3.37; G 3.14; Q 3.53; W 2.26; T 3.42; K 3.38; I 2.75; S 3.39; C 2.85; N 3.62; A 3.46; Y 2.42
L19: Y 3.82; A 4.13; S 4; F 3.31; V 4; C 4.26; T 4.26; N 4.1; P 4.22; R 3.9; K 4.28; Q 4.69; H 4.21; D 4.68; E 4.5; M 3.53; W 3.75; G 4.05; I 3.57
R24: D 4.3; T 4.11; V 3.63; S 3.7; G 3.8; H 3.3; I 3.64; F 3.17; E 4.17; A 3.05; K 4.12; Q 3.89; Y 3.05; N 3.94; W 2.11; C 3.29; L 3.47; M 2.97; P 4.03
E22: L 2.3; T 4.23; P 3.25; G 3.61; A 3.47; H 3.42; V 3.11; N 3.65; W 2.93; F 3.27; Y 2.52; K 3.47; D 4.06; I 2.59; M 2.64; S 3.62; R 3.76; C 3.22; Q 3.57
L23: M 4.33; N 4.01; H 4.68; R 4.04; G 4.41; I 4.09; A 4.24; T 3.94; K 4.63; V 3.68; Q 4.51; S 4.17; Y 3.88; P 3.6; C 4.08; D 4.49; F 3.66; W 3.45
E21: F 3.42; N 3.63; W 2.9; R 3.15; H 3.44; T 2.81; Y 2.75; M 3.14; I 2.89; V 3.1; Q 3.06; L 3.02; D 3.51; A 3.54; P 3.6; G 3.61; S 3.29; C 3.3; K 3.56

Variants of: B2
Test: as above
Settings: c terminus: a fixed tail appended

Protein stability index of substitutions, site by site:
A4: C 2.3
T1: A 2.5; W 1.93; G 2.61; Q 1.85; S 2.98; E 2.21; I 3.74; P 2.1; N 2.8; C 3.15; L 1.72; M 3.36; K 2.89; Y 3.91; D 1.66
A3: F 3.58; N 1.7; G 2.15; L 2.64; M 2.35; W 2.38; P 2.08; T 2.18; K 1.18; I 2.65; R 2.25; Q 2.31; E 2.92; C 2.17; D 2; V 3.73; H 2.12
L2: R 1.84; P 1.93; M 2.24; E 2.01; F 2.56; T 1.77; V 2.68; W 2.87; C 3.06; S 1.57; A 1.7; H 1.43; D 2.1; Q 2.44; G 2.11; Y 2.2; N 1.89; K 1.64
